Test results as given in publication PMC4767637 (Journal of molecular biology, 2016).

Molecular target: the molecule itself
Assay: NMR

B1: Tyr-705-phosphorylated STAT3 (127-711)-His6 (domain or fragment, human, UniProt P40763 127-711, looked up)
chain: GQANHPTAAVVTEKQQMLEQHLQDVRKRVQDLEQKMKVVENLQDDFDFNYKTLKSQGDMQDLNGNNQSVTRQKMQQLEQMLTALDQMRRSIVSELAGLLSAMEYVQKTLTDEELADWKRRQQIACIGGPPNICLDRLENWITSLAESQLQTRQQIKKLEELQQKVSYKGDPIVQHRPMLEERIVELFRNLMKSAFVVERQPCMPMHPDRPLVIKTGVQFTTKVRLLVKFPELNYQLKIKVCIDKDSGDVAALRGSRKFNILGTNTKVMNMEESNNGSLSAEFKHLTLREQRCGNGGRANCDASLIVTEELHLITFETEVYHQGLKIDLETHSLPVVVISNICQMPNAWASILWYNMLTNNPKNVNFFTKPPIGTWDQVAEVLSWQFSSTTKRGLSIEQLTTLAEKLLGPGVNYSGCQITWAKFCKENMAGKGFSFWVWLDNIIDLVKKYILALWNEGYIMGFISKERERAILSTKPPGTFLLRFSESSKEGGVTFTWVEKDISGKTQIQSVEPYTKQQLNNMSFAEIIMGYKIMDATNILVSPLVYLYPDIPKEEAFGKYCRPESQEHPEADPGSAAPYLKTKFI
modifications: phosphotyrosine at 705
With B1 the “dH (van't Hoff, monomer-dimer equilibrium, from I568 and I654)” value was 14.8 ± 1.1 kcal/mol and the “dH (van't Hoff, monomer-dimer equilibrium, from I653 and I711)” value was 12.8 ± 0.5 kcal/mol.
